Measurements reported in patent publication US20230331827A1, “POTASSIUM CHANNEL INHIBITORS” (priority 2017, published 2023).

Tested on: in vitro rat BBB model
Assay: In vitro rat BBB model transcytosis, sandwich ELISA of Fab in lower chamber
Type: in vitro ADME
Conditions: test Fabs as oligoclonal mixes of 3 per well at 2 µM, controls 1 µM, value is per well
Experimental: In order to assess the ability of these KnotBodies to cross the BBB, a ready to use in vitro rat BBB model system (Pharmacocell, Cat. No. RBT-24H) was used. In this model system rat brain endothelial cells were co-cultured with pericytes and astrocytes to mimic the in vivo BBB anatomy (Nakagawa, S. et al. (2009) Neurochem. Int. 54, 253-263). The in vitro rat BBB kit was cultured according to manufacturer’s instructions and transendothelial electrical resistance (TEER) was measured prior to testing of KnotBodies to verify the integrity of the barrier. […] 21 KnotBody Fabs were tested for their ability to cross the in vitro BBB model system. […] The parent KnotBody KB_A12 was used as a negative control. Both positive and negative controls were expressed and purified in the Fab format as described above. […] The concentration of transcytosed Fabs in the lower chamber (referred as brain side) was determined using a sandwich ELISA. In this ELISA, Fabs were captured using an anti-CH1 antibody (provided by Hybridoma Reagent Laboratories) and detected using rabbit anti-human IgG Kappa light chain antibody (Abcam, Cat. No. ab195576) or anti-human IgG Lambda light chain antibody (Abcam, Cat. No. ab124719) followed by europium conjugated anti-rabbit antibody (Perkin Elmer, Cat. No. AD0105). […]

B1: KB_A12: EETI-II knottin fused into VL CDR2, D1A12 VH; parental KnotBody, isotype control (antibody, V domains shown)
VH: EVQLVESGGGLVRPGGSLRLSCAASGFTFSSYAMSWVRQAPGKGLEWVSAISGSGGSTYYADSVKGRFTISRDNTKNSLYLQMTSLRADDTAFYYCVKDFGPGYGTGWFDYWGPGTLVTVSS
VL: QSVLTQPPSVSEAPRQRVTITCSGSSSNIGNNAVNWYQQLPGKAPKLLIYAAGRCPRILMRCKQDSDCLAGCVCGPNGFCGANSGVSDRFSAAKSGTSASLAINGLRSEDEADYYCAAWDDSLNGYVFGTGTKLTVLGQP
- % transcytosis after 6h: 0.1%
